Our source for the iron transferred from GrxDS to EDTA-treated CA-HNifU (iron in the flowthrough NifU after incubation and separation in a Strep-column) and iron transferred from GrxDS to urea-treated apo-CA-HNifU (iron in the flowthrough NifU after incubation and separation in a Strep-column) values is paper PMC13382767.

For this assay, the target named is apo-CA-HNifU (N-terminal His-tagged NifU with cysteines 35, 62, 106, 272 and 275 mutated to alanine, core cluster removed) (A. vinelandii) (UniProt P05340).
UniProt P05340, sequence (P05340 other isoform, or with tags, fused parts or gaps, change not shown): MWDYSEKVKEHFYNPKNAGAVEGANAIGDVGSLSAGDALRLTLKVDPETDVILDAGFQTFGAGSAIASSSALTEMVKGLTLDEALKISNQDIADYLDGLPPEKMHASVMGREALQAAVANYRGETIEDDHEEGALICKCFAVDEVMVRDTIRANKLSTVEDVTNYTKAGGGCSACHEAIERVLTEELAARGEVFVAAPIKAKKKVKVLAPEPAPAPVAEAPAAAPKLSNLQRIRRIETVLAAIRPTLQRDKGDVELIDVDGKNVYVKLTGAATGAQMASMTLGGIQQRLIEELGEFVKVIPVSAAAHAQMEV

In turn, “C-terminal Strep-tagged A. vinelandii GrxD (GrxDS) (natural protein)” showed an iron transferred from GrxDS to EDTA-treated CA-HNifU (iron in the flowthrough NifU after incubation and separation in a Strep-column) of 1 iron; an iron transferred from GrxDS to urea-treated apo-CA-HNifU (iron in the flowthrough NifU after incubation and separation in a Strep-column) of 1.8 irons.
